Measurements: the supplement of paper PMC9112550, “Optimization of the antimicrobial peptide Bac7 by deep mutational scanning” (BMC Biology, 2022)

What follows are sequences tested on Escherichia coli TOP10 (assay: shrunken log2 fold change of peptide-encoding DNA abundance (4.5 h post-induction vs induction); higher = less antimicrobial activity (less host growth inhibition)). Details: time post-induction: 4.5 h; library: site-saturation at positions 5, 18, 19, 20.
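Also: peptides expressed intracellularly from a pBAD plasmid library in pooled LB shake-flask culture, induced with 0.3% L-arabinose, DNA abundance read by NGS, three biological replicates, DESeq2 with apeglm shrinkage.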

RRIRLRPPRLPRPRPRPMHEPRP and RRIRTRPPRLPRPRPRPGHQPRP are within 0.2 log units of each other in “shrunken log2 fold change” value: -0.0688 for the first, -0.199 for the second.

First: RRIRNRPPRLPRPRPRPYRSPRP
Second: RRIRQRPPRLPRPRPRPHHHPRP
The “shrunken log2 fold change” value of the first is higher: -0.0179 for the first, -0.403 for the second.

First: RRIRMRPPRLPRPRPRPMYVPRP
Second: RRIRMRPPRLPRPRPRPACWPRP
The “shrunken log2 fold change” value of the first is lower: 0.115 for the first, 1.06 for the second.

First: RRIRTRPPRLPRPRPRPDGEPRP
Second: RRIRYRPPRLPRPRPRPRYPPRP
The “shrunken log2 fold change” value of the first is higher: 0.0799 for the first, -0.83 for the second.

Compared with RRIRARPPRLPRPRPRPDYKPRP, RRIRIRPPRLPRPRPRPCSTPRP is lower in “shrunken log2 fold change” value: -0.0382 for the first, -0.484 for the second.

RRIRYRPPRLPRPRPRPPNLPRP and RRIRLRPPRLPRPRPRPSSLPRP are within 0.2 log units of each other in “shrunken log2 fold change” value: -0.248 for the first, -0.39 for the second.

Going from RRIRVRPPRLPRPRPRPMKHPRP to RRIRDRPPRLPRPRPRPFWTPRP, the “shrunken log2 fold change” value rises from -0.525 to -0.116.

Compared with RRIRKRPPRLPRPRPRPRGLPRP, RRIRIRPPRLPRPRPRPPSSPRP is lower in “shrunken log2 fold change” value: 0.41 for the first, -0.0293 for the second.

Compared with RRIRFRPPRLPRPRPRPGESPRP, RRIRDRPPRLPRPRPRPRPDPRP is higher in “shrunken log2 fold change” value: -0.00672 for the first, 0.379 for the second.

First: RRIRPRPPRLPRPRPRPQALPRP
Second: RRIRERPPRLPRPRPRPHFDPRP
The “shrunken log2 fold change” value of the first is higher: 0.339 for the first, -0.14 for the second.

First: RRIRSRPPRLPRPRPRPDCTPRP
Second: RRIRDRPPRLPRPRPRPYANPRP
The “shrunken log2 fold change” value of the first is higher: 0.038 for the first, -0.209 for the second.

RRIRTRPPRLPRPRPRPKFIPRP and RRIRHRPPRLPRPRPRPVADPRP are within 0.2 log units of each other in “shrunken log2 fold change” value: -0.175 for the first, -0.209 for the second.

Compared with RRIRVRPPRLPRPRPRPRMYPRP, RRIRWRPPRLPRPRPRPLGCPRP is higher in “shrunken log2 fold change” value: -0.882 for the first, 0.438 for the second.

Going from RRIRHRPPRLPRPRPRPMRLPRP to RRIRNRPPRLPRPRPRPLITPRP, the “shrunken log2 fold change” value falls from 0.0431 to -0.173.

Compared with RRIRWRPPRLPRPRPRPLLCPRP, RRIRYRPPRLPRPRPRPTPIPRP is lower in “shrunken log2 fold change” value: 0.15 for the first, -0.158 for the second.

First: RRIRFRPPRLPRPRPRPFHFPRP
Second: RRIRFRPPRLPRPRPRPPKMPRP
The “shrunken log2 fold change” value of the first is lower: -0.532 for the first, 0.436 for the second.

First: RRIRRRPPRLPRPRPRPNETPRP
Second: RRIRDRPPRLPRPRPRPRMLPRP
The “shrunken log2 fold change” value of the first is lower: -0.0619 for the first, 0.229 for the second.

Compared with RRIRWRPPRLPRPRPRPEMQPRP, RRIRVRPPRLPRPRPRPAWIPRP is lower in “shrunken log2 fold change” value: 1.12 for the first, 0.0483 for the second.

Going from RRIRARPPRLPRPRPRPPFTPRP to RRIRNRPPRLPRPRPRPFCTPRP, the “shrunken log2 fold change” value falls from 0.3 to -0.351.

RRIRKRPPRLPRPRPRPYLCPRP and RRIRVRPPRLPRPRPRPQRNPRP are within 0.2 log units of each other in “shrunken log2 fold change” value: -0.0593 for the first, -0.0128 for the second.

Compared with RRIRNRPPRLPRPRPRPDCRPRP, RRIRQRPPRLPRPRPRPMPAPRP is higher in “shrunken log2 fold change” value: -0.119 for the first, 0.178 for the second.

RRIRDRPPRLPRPRPRPIQDPRP and RRIRRRPPRLPRPRPRPKRKPRP are within 0.2 log units of each other in “shrunken log2 fold change” value: -0.0113 for the first, 0.099 for the second.

First: RRIRRRPPRLPRPRPRPWEFPRP
Second: RRIRCRPPRLPRPRPRPRLEPRP
The “shrunken log2 fold change” value of the first is lower: 0.00288 for the first, 0.299 for the second.

RRIRRRPPRLPRPRPRPVHTPRP and RRIRDRPPRLPRPRPRPNNDPRP are within 0.2 log units of each other in “shrunken log2 fold change” value: 0.0317 for the first, 0.132 for the second.

Compared with RRIRSRPPRLPRPRPRPKKNPRP, RRIRGRPPRLPRPRPRPPRKPRP is higher in “shrunken log2 fold change” value: 0.267 for the first, 1.26 for the second.

First: RRIRERPPRLPRPRPRPEYTPRP
Second: RRIRWRPPRLPRPRPRPNHPPRP
The “shrunken log2 fold change” value of the first is lower: -0.313 for the first, -0.0659 for the second.

RRIRVRPPRLPRPRPRPICTPRP and RRIRLRPPRLPRPRPRPKGYPRP are within 0.2 log units of each other in “shrunken log2 fold change” value: -0.00144 for the first, -0.146 for the second.

RRIRRRPPRLPRPRPRPWFLPRP and RRIRLRPPRLPRPRPRPKNWPRP are within 0.2 log units of each other in “shrunken log2 fold change” value: -0.19 for the first, -0.0113 for the second.

RRIRCRPPRLPRPRPRPANPPRP and RRIRARPPRLPRPRPRPCHRPRP are within 0.2 log units of each other in “shrunken log2 fold change” value: -0.057 for the first, 0.0386 for the second.

RRIRMRPPRLPRPRPRPNEFPRP and RRIRPRPPRLPRPRPRPNRCPRP are within 0.2 log units of each other in “shrunken log2 fold change” value: 0.0287 for the first, 0.0358 for the second.

Going from RRIRARPPRLPRPRPRPRTSPRP to RRIRDRPPRLPRPRPRPWLIPRP, the “shrunken log2 fold change” value falls from 0.382 to -0.138.

Compared with RRIRTRPPRLPRPRPRPAFAPRP, RRIRARPPRLPRPRPRPFEFPRP is lower in “shrunken log2 fold change” value: 0.282 for the first, 0.0786 for the second.

Compared with RRIRGRPPRLPRPRPRPMSPPRP, RRIRKRPPRLPRPRPRPRNAPRP is higher in “shrunken log2 fold change” value: 0.00263 for the first, 0.57 for the second.

Compared with RRIRIRPPRLPRPRPRPADQPRP, RRIRWRPPRLPRPRPRPLGVPRP is higher in “shrunken log2 fold change” value: 0.0357 for the first, 0.459 for the second.

Going from RRIRARPPRLPRPRPRPKLYPRP to RRIRPRPPRLPRPRPRPIHHPRP, the “shrunken log2 fold change” value falls from 0.0318 to -0.454.

RRIRGRPPRLPRPRPRPSHDPRP and RRIRFRPPRLPRPRPRPGSYPRP are within 0.2 log units of each other in “shrunken log2 fold change” value: 0.136 for the first, -0.0318 for the second.

Going from RRIRQRPPRLPRPRPRPVMGPRP to RRIRGRPPRLPRPRPRPRQLPRP, the “shrunken log2 fold change” value rises from 0.0224 to 0.549.

RRIRMRPPRLPRPRPRPEHEPRP and RRIRRRPPRLPRPRPRPKTIPRP are within 0.2 log units of each other in “shrunken log2 fold change” value: 0.0191 for the first, 0.0447 for the second.

First: RRIRMRPPRLPRPRPRPGGMPRP
Second: RRIRSRPPRLPRPRPRPPVDPRP
The “shrunken log2 fold change” value of the first is higher: 0.789 for the first, 0.327 for the second.

First: RRIRFRPPRLPRPRPRPWSFPRP
Second: RRIRKRPPRLPRPRPRPCENPRP
The “shrunken log2 fold change” value of the first is lower: -0.34 for the first, 0.0184 for the second.

Compared with RRIRARPPRLPRPRPRPVFHPRP, RRIRWRPPRLPRPRPRPIWGPRP is higher in “shrunken log2 fold change” value: -0.253 for the first, -0.01 for the second.

Going from RRIRERPPRLPRPRPRPFIFPRP to RRIRGRPPRLPRPRPRPKSGPRP, the “shrunken log2 fold change” value rises from -0.476 to 0.707.

Compared with RRIRRRPPRLPRPRPRPGCHPRP, RRIRVRPPRLPRPRPRPYMNPRP is lower in “shrunken log2 fold change” value: 0.119 for the first, -0.962 for the second.

First: RRIRQRPPRLPRPRPRPNYHPRP
Second: RRIRFRPPRLPRPRPRPWTGPRP
The “shrunken log2 fold change” value of the first is lower: -0.676 for the first, -0.00822 for the second.

Going from RRIRRRPPRLPRPRPRPAMGPRP to RRIRYRPPRLPRPRPRPGFIPRP, the “shrunken log2 fold change” value rises from 0.142 to 2.02.

Going from RRIRLRPPRLPRPRPRPAHRPRP to RRIRLRPPRLPRPRPRPVAHPRP, the “shrunken log2 fold change” value falls from 0.278 to -0.454.

First: RRIRKRPPRLPRPRPRPWFSPRP
Second: RRIRVRPPRLPRPRPRPGAWPRP
The “shrunken log2 fold change” value of the first is lower: -0.329 for the first, 0.323 for the second.

Compared with RRIRKRPPRLPRPRPRPNHTPRP, RRIRDRPPRLPRPRPRPIDEPRP is higher in “shrunken log2 fold change” value: -0.213 for the first, 0.0126 for the second.

Compared with RRIRDRPPRLPRPRPRPAQQPRP, RRIRMRPPRLPRPRPRPLLQPRP is higher in “shrunken log2 fold change” value: -0.0267 for the first, 0.616 for the second.

Compared with RRIRQRPPRLPRPRPRPEWGPRP, RRIRHRPPRLPRPRPRPNKNPRP is lower in “shrunken log2 fold change” value: 0.125 for the first, -0.717 for the second.

First: RRIRWRPPRLPRPRPRPWDHPRP
Second: RRIRYRPPRLPRPRPRPPIHPRP
The “shrunken log2 fold change” value of the first is higher: -0.0185 for the first, -0.958 for the second.

Compared with RRIRCRPPRLPRPRPRPQTQPRP, RRIRSRPPRLPRPRPRPSFHPRP is lower in “shrunken log2 fold change” value: 0.308 for the first, -0.542 for the second.

RRIRLRPPRLPRPRPRPLGWPRP and RRIRWRPPRLPRPRPRPIPAPRP are within 0.2 log units of each other in “shrunken log2 fold change” value: 0.584 for the first, 0.523 for the second.

RRIRFRPPRLPRPRPRPWWDPRP and RRIRGRPPRLPRPRPRPANFPRP are within 0.2 log units of each other in “shrunken log2 fold change” value: -0.0745 for the first, 0.0804 for the second.

In the case of RRIRNRPPRLPRPRPRPWWSPRP, the “shrunken log2 fold change” value is reported as 0.0428.
